Substitutions are numbered along the chain they refer to. Values joined by “and” are separate entries in the source; they are usually repeats but may differ in a detail not shown here. Identical values can stand only once.
B1: Polypeptide_22 (VHH)
VHH: EVQLVESGGGLVQPGGSLKLSCTTSGRRFSEYAVGWFRQGPGKEREFVADIGEQAENTWYAESVLGRFTISRDDAKNTVYLQMDSLKPEDTAVYYCAADKYGVGGNAQGYYDSWGQGTQVTVSS
notes: VHH_1.2 with C-terminal His tag extension E1; also called [VHH_1.2]-E1
B2: Polypeptide_46 (VHH)
VHH: B1 VHH with E1Q, V2L, L11W, K19Q, G40A, K43Q, E62H, D74E
B3: Compound 6 (VHH)
VHH: B1 VHH with K19Q, E62H
modifications: Chem. 24 (C16 diacid substituent) on Cys in position 4 and on Cys in position 6 of the extension (SEQ ID NO: 72)
notes: Polypeptide derivative; extension E2 at the C-terminus of the VHH; also called VHH_1.3-E2 with 2x Chem. 24
B4: Compound 3 (VHH)
VHH: B1 VHH with E1Q, V2L, L11W, K19Q, G40A, K43Q, E62H, D74E
modifications: Chem. 24 (C16 diacid substituent) on Cys in position 4 and on Cys in position 6 of the extension (SEQ ID NO: 72); found mass includes position 1 Gln to pyroGlu formation
B5: Polypeptide_27 (VHH)
VHH: B1 VHH with K19Q, R28K, S30D, G40A, Q54N, E62H
notes: VHH_1.4 with C-terminal His tag extension E1; also called [VHH_1.4]-E1
B6: Compound 8 (VHH)
VHH: B1 VHH with K19Q, R28K, S30D, Q54N
modifications: Chem. 24 (C16 diacid substituent) on Cys in position 4 and on Cys in position 6 of the extension (SEQ ID NO: 72)
notes: Polypeptide derivative; extension E2 at the C-terminus of the VHH; also called VHH_1.5-E2 with 2x Chem. 24
B7: Polypeptide_24 (VHH)
VHH: B1 VHH with K19Q, E62H
notes: VHH_1.3 with C-terminal His tag extension E1; also called [VHH_1.3]-E1
B8: Compound 10 (VHH)
VHH: B1 VHH with K19Q, R28K, S30D, K43Q, Q54N, Q82E, S85G
modifications: Chem. 24 (C16 diacid substituent) on Cys in position 4 and on Cys in position 6 of the extension (SEQ ID NO: 72)
notes: Polypeptide derivative; extension E2 at the C-terminus of the VHH; also called VHH_1.7-E2 with 2x Chem. 24
B9: Polypeptide_28 (VHH)
VHH: B1 VHH with K19Q, R28K, S30D, Q54N
notes: VHH_1.5 with C-terminal His tag extension E1; also called [VHH_1.5]-E1
B10: Polypeptide_47 (VHH)
VHH: B1 VHH with E1Q, V2L, L11W, G40A, E62H, D74E, D84N
notes: VHH_1.15 with C-terminal His tag extension E1; also called [VHH_1.15]-E1
B11: Polypeptide_31 (VHH)
VHH: B1 VHH with K19Q, R28K, S30D, K43Q, Q54N, Q82E, S85G
notes: VHH_1.7 with C-terminal His tag extension E1; also called [VHH_1.7]-E1
B12: Compound 7 (VHH)
VHH: B1 VHH with K19Q, R28K, S30D, G40A, Q54N, E62H
modifications: Chem. 24 (C16 diacid substituent) on Cys in position 4 and on Cys in position 6 of the extension (SEQ ID NO: 72)
notes: Polypeptide derivative; extension E2 at the C-terminus of the VHH; also called VHH_1.4-E2 with 2x Chem. 24
B13: Compound 9 (VHH)
VHH: B1 VHH with G40A, Q82E, S85G
modifications: Chem. 24 (C16 diacid substituent) on Cys in position 4 and on Cys in position 6 of the extension (SEQ ID NO: 72)
notes: Polypeptide derivative; extension E2 at the C-terminus of the VHH; also called VHH_1.6-E2 with 2x Chem. 24; Chem. 31
B14: Compound 5 (VHH)
VHH: B1 VHH
modifications: Chem. 24 (C16 diacid substituent) on Cys in position 4 and on Cys in position 6 of the extension (SEQ ID NO: 72)
notes: Polypeptide derivative; extension E2 at the C-terminus of the VHH; also called VHH_1.2-E2 with 2x Chem. 24
B15: Compound 4 (VHH)
VHH: B1 VHH with L11W, K19Q, G40A, K43Q, E62H, D74E
modifications: Chem. 24 (C16 diacid substituent) on Cys in position 4 and on Cys in position 6 of the extension (SEQ ID NO: 72)
notes: Polypeptide derivative; extension E2 at the C-terminus of the VHH; also called VHH_1.1-E2 with 2x Chem. 24
B16: Compound 1 (VHH)
VHH: QLQLVESGGGWVQPGGSLQLSCTTSGRTFSSYAVGWFRQAPGQEREFVADIGENADNTWYAHSVKGRFTISRDNAKNTVYLQMDSLKPEDTAVYYCAADSYGVGGGAQGYYDSWGQGTQVTVSS
modifications: Chem. 24 (C16 diacid substituent) on Cys in position 4 and on Cys in position 6 of the extension (SEQ ID NO: 72)
notes: Polypeptide derivative; extension E2 at the C-terminus of the VHH; also called VHH_1.12-E2 with 2x Chem. 24
B17: Compound 2 (VHH)
VHH: EVQLVESGGGLVQAGGSLQLSCTASGGTFSEYAMAWFRQAPGQEREFVTDIGESGGTWYADSVKGRFTISRDNAKNTVYLQMDSLRPEDTAVYYCAADSYGVGGGAERYYDSWGQGTQVTVSS
modifications: Chem. 24 (C16 diacid substituent) on Cys in position 4 and on Cys in position 6 of the extension (SEQ ID NO: 72)
notes: Polypeptide derivative; extension E2 at the C-terminus of the VHH; also called VHH_1.13-E2 with 2x Chem. 24
B18: Compound 12 (VHH)
VHH: EVQLVESGGGLVQPGGSLQLSCAASGFTFSNYWMYWVRQAPGQGLEWVSGINTGGSTPDYADSVKGRFAISRDNAKNTLYLQMDSLRPEDTAVYYCAADTPRVFRLDHYSPLGQGTQVTVSS
modifications: Chem. 24 (C16 diacid substituent) on Cys in position 4 and on Cys in position 6 of the extension (SEQ ID NO: 72)
notes: Polypeptide derivative; extension E2 at the C-terminus of the VHH; also called VHH_1.17-E2 with 2x Chem. 24
B19: Polypeptide_49 (VHH)
VHH: B1 VHH with E1Q, G40A, Q82E, S85G
B20: Polypeptide_51 (VHH)
VHH: B1 VHH with L11W, G40A, Q82E, S85G
B21: Polypeptide_50 (VHH)
VHH: B1 VHH with V2L, G40A, Q82E, S85G

Target: T1, human IL-6 (mature hIL-6) (human, UniProt P05231 30-212)
T1 sequence (P05231 30-212): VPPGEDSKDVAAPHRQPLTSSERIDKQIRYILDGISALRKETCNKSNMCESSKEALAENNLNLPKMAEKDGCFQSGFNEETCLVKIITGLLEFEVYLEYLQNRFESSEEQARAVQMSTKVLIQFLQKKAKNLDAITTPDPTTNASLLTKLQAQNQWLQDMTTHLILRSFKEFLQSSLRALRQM
Assay: cell-based or functional assay

Row | Binder | IC 50 (nM), reporter gene assay, 0% HSA [nM] | IC 50 (nM), reporter gene assay, 1% HSA [nM]
1 | B1 | 0.029 | –
2 | B2 | 0.021 | –
3 | B3 | 0.018 | 0.016
4 | B4 | 0.029 | 0.029
5 | B5 | 0.026 | –
6 | B6 | 0.02 | 0.017
7 | B7 | 0.019 | –
8 | B8 | 0.022 | 0.016
9 | B9 | 0.027 | –
10 | B10 | 0.017 | 0.01
11 | B11 | 0.023 | –
12 | B12 | 0.025 | 0.019
13 | B13 | 0.022 | 0.014
14 | B14 | 0.019 | 0.012
15 | B15 | 0.024 | 0.015
16 | B16 | 0.029 | 0.06
17 | B17 | 0.065 | 0.041
18 | B18 | – | 0.021

Target: T1, human IL-6 (mature hIL-6)
Assay: cell-based or functional assay
Remark: another data set of the same source

Row | Binder | IC50 (nM), STAT3-luc reporter gene assay [nM] | Relative IC50 to Reference Polypeptide_29 [fold]
19 | B19 | 0.051 | 1.5
20 | B20 | 0.053 | 1.5
21 | B21 | 0.049 | 1.4

Target: T2, recombinant human HPC4-tagged IL-6 (human, UniProt P05231 30-212)
T2 construct: captured on an anti-HPC4 antibody in SPR; also called HPC4-human IL6
T2 sequence (P05231 other isoform, or with tags, fused parts or gaps limits assumed): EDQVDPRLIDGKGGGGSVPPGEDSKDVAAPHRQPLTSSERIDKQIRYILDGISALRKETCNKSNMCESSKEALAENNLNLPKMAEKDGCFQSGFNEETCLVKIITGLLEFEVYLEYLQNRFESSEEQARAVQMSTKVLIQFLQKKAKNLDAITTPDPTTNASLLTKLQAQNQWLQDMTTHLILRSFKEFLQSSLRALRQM
Assay: SPR, HPC4-IL-6 captured on anti-HPC4 antibody, VHH injected, 25 C, 1:1 model
Protocol: Binding of purified anti-IL-6 VHHs to recombinant human HPC4-tagged IL-6 (SEQ ID NO: 98) was probed by Surface Plasmon Resonance (SPR).
IL-6 was captured at a flow rate of 10 μL/min for 30 seconds.
Subsequently, concentration series of VHH polypeptides according to Table 33 were injected at a flow rate of 50 μL/min for 200 seconds to allow for binding to […] followed by 600 seconds running buffer (10 mM HEPES, 150 mM NaCl, 5 mM CaCl₂, 0.05% (v/v) Surfactant P20, 1 mg/mL bovine serum albumin, pH 7.4) injection allowing dissociation from IL-6. The running buffer was also used for dilution of anti-IL-6 VHHs and IL-6. Regeneration of the chip was achieved using a regeneration buffer consisting of 50 mM EDTA in running buffer without CaCl₂, 30 seconds contact time, and a 30 μL/min flow rate applied twice to the surface. The binding data were collected at 25° C. at either a Biacore instrument (Cytiva AB, Uppsala) or a Bruker SPR32 (Bruker Daltonics). Data were analysed according to a 1:1 model using either BiaEvaluation or Biacore Insight Evaluation (Cytiva AB, Uppsala) or Bruker Analyser (Bruker Daltonics).

Row | Binder | Kd | koff | kon
22 | B1 | 0.00721 nM | 0.000147 s⁻¹ | 2.03e+07 M⁻¹ s⁻¹
23 | B3 | 0.0161 nM and 0.0214 nM | 7.82e-05 s⁻¹ and 9.95e-05 s⁻¹ | 4.94e+06 M⁻¹ s⁻¹ and 4.65e+06 M⁻¹ s⁻¹
24 | B5 | 0.00755 nM | 0.000163 s⁻¹ | 2.16e+07 M⁻¹ s⁻¹
25 | B6 | 0.0221 nM and 0.0296 nM | 0.000101 s⁻¹ and 0.000123 s⁻¹ | 4.58e+06 M⁻¹ s⁻¹ and 4.16e+06 M⁻¹ s⁻¹
26 | B7 | 0.00321 nM | 0.000132 s⁻¹ | 4.12e+07 M⁻¹ s⁻¹
27 | B8 | 0.0191 nM and 0.0208 nM | 0.000108 s⁻¹ and 9.33e-05 s⁻¹ | 4.48e+06 M⁻¹ s⁻¹ and 5.68e+06 M⁻¹ s⁻¹
28 | B9 | 0.00508 nM | 0.00013 s⁻¹ | 2.56e+07 M⁻¹ s⁻¹
29 | B10 | – | 0.00014 s⁻¹ and 0.000208 s⁻¹ and 0.000137 s⁻¹ | 2.59e+07 M⁻¹ s⁻¹ and 1.05e+07 M⁻¹ s⁻¹ and 2.03e+07 M⁻¹ s⁻¹
30 | B11 | 0.0175 nM | 0.000154 s⁻¹ | 8.82e+06 M⁻¹ s⁻¹
31 | B12 | 0.0252 nM and 0.0338 nM | 0.000127 s⁻¹ and 0.000154 s⁻¹ | 5.05e+06 M⁻¹ s⁻¹ and 4.56e+06 M⁻¹ s⁻¹
32 | B13 | 0.0187 nM and 0.0218 nM and 0.0223 nM | 8.71e-05 s⁻¹ and 0.000105 s⁻¹ and 0.000101 s⁻¹ | 4.66e+06 M⁻¹ s⁻¹ and 4.82e+06 M⁻¹ s⁻¹ and 4.53e+06 M⁻¹ s⁻¹
33 | B14 | 0.0159 nM and 0.0214 nM | 7.82e-05 s⁻¹ and 9.95e-05 s⁻¹ | 4.94e+06 M⁻¹ s⁻¹ and 4.65e+06 M⁻¹ s⁻¹
34 | B15 | 0.0142 nM and 0.0191 nM | 6.98e-05 s⁻¹ and 9.08e-05 s⁻¹ | 4.9e+06 M⁻¹ s⁻¹ and 4.75e+06 M⁻¹ s⁻¹
35 | B16 | 0.0637 nM and 0.0454 nM | 0.000364 s⁻¹ and 0.000371 s⁻¹ | 5.67e+06 M⁻¹ s⁻¹ and 8.18e+06 M⁻¹ s⁻¹
36 | B17 | 0.0523 nM | 0.000348 s⁻¹ | 6.66e+06 M⁻¹ s⁻¹
37 | B18 | 0.0543 nM | 0.000216 s⁻¹ | 7.36e+06 M⁻¹ s⁻¹
